The record followed here is publication PMC4786110.

The experiment has as its target aMh-FcG2a, nanobody aMh fused with the Fc domain of mouse IgG2a (Camelus bactrianus | camel | mouse). Nature of the experiment: SPR; Biacore 3000; aMh-Fc captured by anti-mouse IgG immobilised on a CM5 chip; antigen flowed at 5.95-595 nM; 25°C, HBS-EP pH 7.4, 30 μl/min; 1:1 fitting. (In general: SPR reads the build-up and loss of mass on a sensor chip optically.)

aMh-FcG2a, nanobody aMh fused with the Fc domain of mouse IgG2a (Camelus bactrianus | camel | mouse), sequence (heavy, as listed by the source): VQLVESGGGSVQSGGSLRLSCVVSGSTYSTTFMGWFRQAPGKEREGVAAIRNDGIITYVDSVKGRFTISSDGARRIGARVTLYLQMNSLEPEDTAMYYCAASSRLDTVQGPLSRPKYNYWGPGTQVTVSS

“ABC transporter substrate binding protein (MH3620) of Mycoplasma hominis (natural protein)”: the Kd stood at 5.94 nM, the koff is 0.000106 s⁻¹ and the association rate constant (kon) worked out at 17800 M⁻¹ s⁻¹.

The Kd is the equilibrium constant for the complex coming apart. A low value points to tighter binding. As a reminder, the koff is the first-order rate constant of dissociation. A lower koff goes with a long-lived complex. The kon is a measure of how fast the partners come together. High values mean faster complex formation, low ones slower complex formation.
